Molecular target: Triton X-100-insoluble residue of platelets (platelet cytoskeleton) (human (endogenous in platelets)) (UniProt P60709)
Assay: co-sedimentation

platelet surface glycoprotein GPIII (from UniProt P05106 27-788) (natural protein)
percent of radioactivity in the supernatant fraction, without m1: > 95%

Reference: publication PMC2112059
